Assay results published in the supplement of paper PMC9732359.
± gives the uncertainty stated by the source.

experiment: protein stability index of a GFP-peptide fusion (yeast GPS) (PSI 1-4); higher = more stable; sorted into four equal gates, so the index is relative within each strain; settings: pdr5∆
Outline: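 Each library plasmid carries Cherry plus GFP with a tiled 17-residue yeast protein peptide fused downstream, and the pooled library was carried in yeast. Mid-log cultures in leucine-free medium were sorted into four equal gates by GFP/Cherry ratio. Reads from Illumina sequencing of PCR-amplified plasmids from each gate were assigned to strains by barcodes. Per peptide, the protein stability index was computed as the summed products of gate read frequency and gate number.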

| Sequence | protein stability index |
| --- | --- |
| RRSKQLINLAKTRVGSV [RPC82] | 2.91 ± 0.062 |
| RRVNQAIALLTIGAREA [RPS5] | 2.72 ± 0.21 |

same assay, conditions: san1∆

| Sequence | protein stability index |
| --- | --- |
| QQPQTNTAPGLGNTVST [YGR119C/NUP57] | 3.04 ± 0.073 |
| QQQIESNEEQRNLDSAT [SMC3] | 3.43 ± 0.091 |
| QQQIIKIRITLTSTKVK [RPS20] | 1.59 ± 0.1 |
| QQQQDLQQQQQVVTTVA [SNF6] | 1.87 ± 0.23 |
| QQQQQQQQQQQHIYPSS [GAL11] | 2.693 ± 0.017 |
| QQVEGKLSQMILDKIFY [RPN6] | 3.01 ± 0.096 |
| QREAAAEYAQLLAKRLS [RPS6A] | 1.7 ± 0.11 |
| QREFKEIMEERNVEQKL [NNF1] | 2.79 ± 0.24 |
| QRKKQSDVLRFLQRVRV [RPL15A] | 1.78 ± 0.26 |
| QRLIFAGKQLEDGRTLS [RPS31] | 3.38 ± 0.067 |
| QSLGLDDLQKFNGIENQ [ISW2] | 2.44 ± 0.07 |
| QSQLNVTLSQLVSVTST [MED8] | 1.44 ± 0.049 |
| QSSESFDDSDITKFALF [YML103C/NUP188] | 2.48 ± 0.083 |
| QSSLDVAGLEDKFRKAC [SIR3] | 3.42 ± 0.13 |
| QSSLSKVDIPLEVVQYI [NUT2] | 2.24 ± 0.083 |
| QTAVTCESCSTILCTPT [RPS27A] | 1.91 ± 0.056 |
| QTKEIKTERVEDQKVVD [RPL6B] | 3.48 ± 0.068 |
| QTKENKRCVGVILGDAN [RPN8] | 2.74 ± 0.055 |
| QTPAEKHAFMGTLKKDL [RPL3] | 2.96 ± 0.11 |
| QTWSYLSLYSTDLENSS [ECM29] | 2.66 ± 0.05 |
| QVIVDIFSVHGNTVVDG [YCG1] | 1.4 ± 0.2 |
| QVLVTTNQDGLKFVKVR [RPB2] | 1.69 ± 0.14 |
| QVRNQVFMLDTKRLGTP [RGR1] | 2.75 ± 0.084 |
| QVSEVDPGRYNKVCRIE [RPB8] | 2.65 ± 0.084 |
| QWIKFLLHTLYLRPASA [SSN8] | 1.4 ± 0.073 |

| Sequence | protein stability index |
| --- | --- |
| QWSIEIVLLDDEGKEIP [TAF14] | 2.71 ± 0.066 |
| QYEHLIKGIREYEEWQK [YDL116W/NUP84] | 2.88 ± 0.13 |
| QYTQRLSKLEKALDRHE [SRP68] | 2.72 ± 0.039 |
| RAAKLAAPENEKPAPVR [RPS15] | 2.89 ± 0.073 |
| RAASVGSLKLIELLCGL [NAS6] | 1.94 ± 0.11 |
| RADTMDFKTDVDEPMTS [YJL039C/NUP192] | 3.25 ± 0.11 |
| RAGIIIAKLSVIPIRRG [RPS2] | 1.31 ± 0.13 |
| RAGVSQVLNRYTYSSTL [RPB2] | 2.9 ± 0.038 |
| RAIDSLIQKGYLQRGDD [CDC53] | 2.17 ± 0.12 |
| RALFETKLNLHCVIEDD [RRI1] | 2.8 ± 0.057 |
| RALKVRNAQAQREAAAE [RPS6A] | 2.74 ± 0.074 |
| RARLKGKEGRIRGNLMG [RPO21] | 3.32 ± 0.088 |
| RCFSCGKVVGDKWESYL [RPB10] | 1.98 ± 0.16 |
| RCNDNLMRSCFYLMVSS [YJL039C/NUP192] | 2.31 ± 0.057 |
| RCYQPFELFDNKTAHLS [SNU114] | 2.53 ± 0.061 |
| RDALRNIKNTNEEATPI [RRP6] | 2.86 ± 0.06 |
| RDDEPKLYQTEPSGIYS [PRE6] | 3.09 ± 0.051 |
| RDIEKITSLYALIRRDF [CDC53] | 1.84 ± 0.05 |
| RDREPKEPVALIETVRQ [RPN2] | 3.12 ± 0.079 |
| REDEFGSIPSLTTQFVT [YDL088C/ASM4] | 3.06 ± 0.053 |
| REDMPFTAEGIVPDLII [RPB2] | 3.1 ± 0.093 |
| REILCYSKDAKEIYYTP [FAS2] | 2.701 ± 0.025 |
| RELLVEGYGLRDVMCTD [RPO31] | 2.77 ± 0.066 |
| RERDITSLFHKFILSGF [RRI2] | 2.23 ± 0.063 |
| RERQVNEKLADLGLEKE [RPC53] | 3.06 ± 0.18 |

| Sequence | protein stability index |
| --- | --- |
| RFMRFLADRDEFIQDSA [ECM29] | 1.21 ± 0.094 |
| RFPETMDETQTRAKIGG [RPO21] | 2.69 ± 0.24 |
| RGFIKSEGSGSSLVQKG [RPC53] | 3.31 ± 0.076 |
| RGIPRLSEDELRELDVE [SMC4] | 3.36 ± 0.14 |
| RGMLGLLEPPAKELQGI [RPO31] | 3.28 ± 0.096 |
| RGNKVNKQIEILTDLVN [ITC1] | 2.71 ± 0.11 |
| RGYFITQEEVELPLEDF [RPB5] | 3.28 ± 0.15 |
| RHFGMGPHKGKAPRILS [RPL18A] | 3.09 ± 0.13 |
| RHHRKTEKEEDAELMAD [ISW2] | 3.15 ± 0.091 |
| RHLPMYTEFIDSFIEKI [ITC1] | 2.85 ± 0.11 |
| RIAVLHQKTKTLASLSI [YGL172W/NUP49] | 2.26 ± 0.07 |
| RIDAFNALEHKYFTESD [SSN3] | 2.95 ± 0.05 |
| RIIRKKIFIAVVWYQRL [RRI2] | 1.27 ± 0.084 |
| RILQQLKLDKIIHVLTT [RGR1] | 1.72 ± 0.15 |
| RKASCIWLLSYIQYLGH [ECM29] | 2.32 ± 0.054 |
| RKCETQKQWDDIAFVLN [YCS4] | 2.7 ± 0.12 |
| RKCQFRTPDSISVNSSS [POP1] | 2.64 ± 0.056 |
| RKEPPATVEECVKLTVR [PRE6] | 1.7 ± 0.2 |
| RKFERARGRRRSKGFKV [RPL18A] | 3.54 ± 0.12 |
| RKFHELNDHIDDFEVNV [GRR1] | 2.42 ± 0.16 |
| RKHHKKGITEEVAKKRS [RPL24A] | 3.19 ± 0.17 |
| RKHKRVSPNAAPRQEIS [YAR002W/NUP60] | 2.92 ± 0.046 |
| RKKARTFDSSWNWAKQS [FAS2] | 2.32 ± 0.12 |
| RKRAHSLVSTQSSSSTR [REC8] | 2.77 ± 0.051 |
| RKRCKGTVGNSHKTTKE [RPL11A] | 2.99 ± 0.16 |

| Sequence | protein stability index |
| --- | --- |
| RLELLQLSPVKNSRVEL [SMC4] | 3.22 ± 0.13 |
| RLIDLSGCENITDKTIE [GRR1] | 2.85 ± 0.079 |
| RLKFGHRLIATHTNLER [SNF2] | 2.29 ± 0.067 |
| RLRTLCRDSDDHKRFIV [DIS3] | 2.2 ± 0.27 |
| RMFEKNVMLNIYPRTVI [SKI6] | 1.06 ± 0.27 |
| RMRIFASNEVIAKSRYW [RPL20A] | 2.54 ± 0.068 |
| RNAEFKVSKNSTSFKNP [YMR153W/NUP53] | 2.14 ± 0.1 |
| RNQVQTENVAQARIILN [YGR119C/NUP57] | 3.01 ± 0.05 |
| RNVEQKLNELDELILEA [NNF1] | 3.22 ± 0.039 |
| RPFEGLFVISTEISPMA [RRP45] | 3.04 ± 0.061 |
| RPGRIDRKIEFPPPSVA [RPT6] | 3.05 ± 0.054 |
| RPHQSRESLIMLLEEQL [MED7] | 1.45 ± 0.19 |
| RPNRRGPRNTEEKGWVP [RPS2] | 3.68 ± 0.12 |
| RPQKLRASLVPGTVLIL [RPL6A] | 2.11 ± 0.077 |
| RQKARTDAHTPLARNYI [RPR2] | 2.78 ± 0.049 |
| RQPSLHRLSILSHYAKI [RPO31] | 1.36 ± 0.12 |
| RRGAHGSELSSKIRKIH [SIR3] | 2.57 ± 0.15 |
| RRHRNPDLQFIVISLKN [SMC1] | 1.73 ± 0.058 |
| RRKKILNEIELDNLKLK [GRR1] | 2.76 ± 0.093 |
| RRLAFLGIKVAELTGDS [BRR2] | 2.71 ± 0.16 |
| RRLHDENLMVQRTCLMT [YCS4] | 2.45 ± 0.058 |
| RRNLRYGDRMKLAKNLQ [RPO31] | 3.48 ± 0.079 |
| RRQAVDVSPLRRVNQAI [RPS5] | 2.69 ± 0.078 |
| RRRKGISTGGFMSNDGP [SNU114] | 1.18 ± 0.14 |
